Measured values as given in patent US7754689B2, “Finger-1 peptide analogs of the TGF-β superfamily” (Wyeth LLC, priority 2006, dated 2010).
No end group written: not given here.

T1: BMP-12 (UniProt Q7Z4P5 322-450, limits assumed)
T1 construct: also called BMP12/GDF7
T1 sequence (looked up): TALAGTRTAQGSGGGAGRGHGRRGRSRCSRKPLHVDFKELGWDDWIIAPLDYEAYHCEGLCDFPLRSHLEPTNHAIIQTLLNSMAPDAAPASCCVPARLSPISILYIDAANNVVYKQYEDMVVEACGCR


Tests used:
[1] = target: T1, BMP-12; assay: peptide resin, filter plate; load 1: 50 mM Acetic Acid, 0.1 M NaCl, pH 2.9
Protocol: (§1) The coupled resins, plus an unconjugated resin for use as a control, were suspended in 16% ethanol, 150 mM NaCl, and 20 mM Tris buffer at pH 7.5 at a 25% v/v ratio (e.g., 25% ethanol, 75% Tris buffer). A Tecan liquid-handling robot was employed to aliquot 200 μL of each slurry into one of eight rows of a 96 well polystyrene filter plate (0.45 μm hydrophilic filters, Whatman catalog number 770-1806). Spinning at 1200 g for 3 min removed the liquid phase, leaving 50 μL of wet resin on the filters. The resins were then equilibrated with the loading buffers listed in Table 6 (K is a coefficient characterizing the strength of protein binding to a particular resin in a particular buffer). […] The resins were loaded by transferring 150 μL from the load plate to the filter plate and then incubating 20 min on a shaking platform to facilitate binding. The filter plate was spun down and the filtrate collected in a 96 well UV plate. The protein concentration in the filtrate, or flow-through, was calculated as $(A280-A320)/1.3$. The filter plate was then washed with 150 μL of 100 mM acetic acid, followed by 150 μL of 4M guanidine-HCl and 50 mM sodium acetate at pH 4.0. The protein concentration was measured in the new filtrate as described above. […] Flow-through and acetic acid elution samples from column 4 of the plate (loaded with MES pH 6) were analyzed on a gel (FIG. 14).

[2] = target: T1, BMP-12; assay: peptide resin, filter plate; load 3: 25 mM Na Acetate pH 5.0
Protocol: as §1

[3] = target: T1, BMP-12; assay: peptide resin, filter plate; load 11: 50 mM Tris, 0.25 M NaCl, 30% MPD, pH 8.0
Protocol: as §1

[4] = target: T1, BMP-12; assay: peptide resin, filter plate; load 10: 50 mM Tris, 0.1 M NaCl, 40% MPD, pH 8.0
Protocol: as §1

[5] = target: T1, BMP-12; assay: peptide resin, filter plate; load 5: 25 mM HEPES pH 7.0
Protocol: as §1

[6] = target: T1, BMP-12; assay: peptide resin, filter plate; load 6: 1M CHES pH 9.7
Protocol: as §1

[7] = target: T1, BMP-12; assay: peptide resin, filter plate; load 4: 25 mM MES pH 6.0
Protocol: as §1

[8] = target: T1, BMP-12; assay: peptide resin, filter plate; load 2: 50 mM Acetic Acid, 0.1 M NaCl, pH 4.0
Protocol: as §1

[9] = target: T1, BMP-12; assay: peptide resin, filter plate; load 12: 50 mM Tris, 0.1 M NaCl, 20% MPD, pH 8.0
Protocol: as §1

Row | Binder | 100 mM HAc elution K [1] | 100 mM HAc elution conc [1] | 4M Gnd, 50 mM NaAc pH 4 Strip Conc [1] | Flow-through K [1] | Flow-through conc [1] | 100 mM HAc elution K [2] | 100 mM HAc elution conc [2] | 4M Gnd, 50 mM NaAc pH 4 Strip Conc [2] | Flow-through K [2] | Flow-through conc [2] | Flow-through K [3] | Flow-through conc [3] | Flow-through K [4] | Flow-through conc [4] | 100 mM HAc elution K [5] | 100 mM HAc elution conc [5] | 4M Gnd, 50 mM NaAc pH 4 Strip Conc [5] | Flow-through K [5] | Flow-through conc [5] | Flow-through K [6] | other results
1 | Ac-SDVGWNDWIVAPPGYHAFYCHGEK [BMP2 N-trun peptide 750] | 1 | 0.096 mg/mL | 0.044 mg/ml | 1 | 0.337 mg/mL | 1 | 0.226 mg/mL | 0.072 mg/ml | 6 | 0.163 mg/mL | 1 | 0.342 mg/mL | 0 | 0.423 mg/mL | 0 | 0.187 mg/mL | 0.046 mg/ml | 2 | 0.29 mg/mL | -1 | Flow-through conc [6]: 0.577 mg/mL; 100 mM HAc elution K [7]: 1; 100 mM HAc elution conc [7]: 0.311 mg/mL; 4M Gnd, 50 mM NaAc pH 4 Strip Conc [7]: 0.06 mg/ml; Flow-through K [7]: 36; Flow-through conc [7]: 0.037 mg/mL; 100 mM HAc elution K [8]: 2; 100 mM HAc elution conc [8]: 0.194 mg/mL; 4M Gnd, 50 mM NaAc pH 4 Strip Conc [8]: 0.087 mg/ml; Flow-through K [8]: 6; Flow-through conc [8]: 0.164 mg/mL; Flow-through K [9]: 1; Flow-through conc [9]: 0.364 mg/mL
2 | Ac-SDVGWNDWIVAPPGYHAFYSHGEK [BMP2 N-trun 1S peptide 751] | 1 | 0.102 mg/mL | 0.046 mg/ml | 1 | 0.349 mg/mL | 1 | 0.285 mg/mL | 0.07 mg/ml | 9 | 0.124 mg/mL | 0 | 0.425 mg/mL | 0 | 0.435 mg/mL | 0 | 0.254 mg/mL | 0.044 mg/ml | 4 | 0.216 mg/mL | -1 | Flow-through conc [6]: 0.647 mg/mL; 100 mM HAc elution K [7]: 1; 100 mM HAc elution conc [7]: 0.355 mg/mL; 4M Gnd, 50 mM NaAc pH 4 Strip Conc [7]: 0.053 mg/ml; Flow-through K [7]: 38; Flow-through conc [7]: 0.035 mg/mL; 100 mM HAc elution K [8]: 1; 100 mM HAc elution conc [8]: 0.219 mg/mL; 4M Gnd, 50 mM NaAc pH 4 Strip Conc [8]: 0.089 mg/ml; Flow-through K [8]: 6; Flow-through conc [8]: 0.156 mg/mL; Flow-through K [9]: 1; Flow-through conc [9]: 0.411 mg/mL
3 | Ac-VAPPGYHAFYSHGEK [BMP2 N-trunc_2 peptide 745] | 1 | 0.058 mg/mL | 0.024 mg/ml | 1 | 0.397 mg/mL | 0 | 0.073 mg/mL | 0.026 mg/ml | 1 | 0.407 mg/mL | 0 | 0.431 mg/mL | 0 | 0.464 mg/mL | 0 | 0.077 mg/mL | 0.021 mg/ml | 1 | 0.397 mg/mL | -1 | Flow-through conc [6]: 0.626 mg/mL; 100 mM HAc elution K [7]: -1; 100 mM HAc elution conc [7]: 0.104 mg/mL; 4M Gnd, 50 mM NaAc pH 4 Strip Conc [7]: 0.027 mg/ml; Flow-through K [7]: 0; Flow-through conc [7]: 0.426 mg/mL; 100 mM HAc elution K [8]: 1; 100 mM HAc elution conc [8]: 0.057 mg/mL; 4M Gnd, 50 mM NaAc pH 4 Strip Conc [8]: 0.026 mg/ml; Flow-through K [8]: 1; Flow-through conc [8]: 0.41 mg/mL; Flow-through K [9]: 0; Flow-through conc [9]: 0.435 mg/mL
